Results on three molecules are retold here after article PMC12101500, “Mechanism of D-type cyclin recognition by the AMBRA1 E3 ligase receptor” (Science Advances, 2025).

Assay [1] addresses DDB1-AMBRA1^WD40 complex (human) (UniProt Q9C0C7). Description: ITC; peptide (100 μM) titrated into AMBRA1^WD40-DDB1 complex (10 μM); 25°C; 50 mM Hepes pH 7.4, 200 mM NaCl, 2 mM MgCl2, 1 mM TCEP; single-site binding model.
Assay [2] addresses T1, TSF–cyclin D1 (full-length) (human, UniProt P24385 1-295, phosphothreonine at 286 (found in the reconstituted complex by Western blotting and MS)).
T1 construct: cyclin D1, human; also called Twin-Strep-FLAG–cyclin D1; source: Expi293F, co-transfected; in lysate (pull-downs) and purified in complexes (MBP or GST beads, TEV digestion, Strep-tactin, Superdex 200); not shown: Twin-Strep-FLAG (TSF), N-terminal, kept
Description: cryo-EM structure; DDB1–AMBRA1^WD40–cyclin D1–CDK4EE complex co-expressed in Expi293F and purified (MBP beads, TEV, Strep-tactin, Superdex 200); 0.3 mg/ml; 3.55 Å. Particulars: both partners purified.

For another assay, the target named is DDB1-AMBRA1 WD40 (Homo sapiens, UniProt Q16531). Description: ITC.

Where no end group is shown, it is not given here. [ ]: non-standard residue; d: D form. pT = C[C@@H](OP(=O)(O)O)[C@H](N)C(=O)O

T1 sequence (P24385 whole entry): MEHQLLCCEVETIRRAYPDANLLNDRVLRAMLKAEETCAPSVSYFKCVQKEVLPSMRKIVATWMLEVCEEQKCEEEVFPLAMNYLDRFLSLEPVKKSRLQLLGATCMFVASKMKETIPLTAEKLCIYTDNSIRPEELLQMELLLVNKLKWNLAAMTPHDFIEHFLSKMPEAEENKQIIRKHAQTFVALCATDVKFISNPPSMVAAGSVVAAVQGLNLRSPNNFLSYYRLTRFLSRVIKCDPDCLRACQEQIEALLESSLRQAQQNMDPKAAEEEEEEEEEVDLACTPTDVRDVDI

The Kd is the free concentration of one partner at which half of the binding sites on the other are occupied at equilibrium, for simple one-to-one binding. A higher Kd goes with weaker binding. For the molecule “T286-phosphorylated cyclin D1 peptide (residues 284 to 295)”, in assay [1], the Kd turned out to be 210 nM.

B1: AMBRA1^WD40 (residues M1 to N204 directly fused to S853 to G1044), MBP removed (domain or fragment, human, UniProt Q9C0C7 1-204, looked up)
chain: MKVVPEKNAVRILWGRERGARAMGAQRLLQELVEDKTRWMKWEGKRVELPDSPRSTFLLAFSPDRTLLASTHVNHNIYITEVKTGKCVHSLIGHRRTPWCVTFHPTISGLIASGCLDGEVRIWDLHGGSESWFTDSNNAIASLAFHPTAQLLLIATANEIHFWDWSRREPFAVVKTASEMERVRLVRFDPLGHYLLTAIVNPSNSNIANTTYRLQWWDFTKFDLPEISNASVNVLVQNCKIYNDASCDISADGQLLAAFIPSSQRGFPDEGILAVYSLAPHNLGEMLYTKRFGPNAISVSLSPMGRYVMVGLASRRILLHPSTEHMVAQVFRLQQAHGGETSMRRVFNVLYPMPADQRRHVSINSARWLPEPGLGLAYGTNKGDLVICRPEALNSG
notes: AMBRA1, human, residues M1 to N204, directly fused to S853; AMBRA1, human, residues S853 to G1044; Same construct as m5, after TEV digestion; the gene was codon optimized; also called AMBRA1 WD40 domain; AMBRA1^WD40 WT; source: Expi293F, co-expressed, purified in complex (MBP beads, TEV digestion, Strep-tactin and/or Superdex 200); not shown: MBP, N-terminal, cleaved
Turning to B1, the binding result in assay [2] is reported as “binds”.
Ac-AC[pT]PTDVRDVDI [cyclin D1 284-295] displayed a Kd with DDB1-AMBRA1 WD40 of about 200 nM.
